Legend:
[1] = target: OsPPR676 (recombinant, Expi293) (rice); assay: MST; Monolith NT.115; 100 nM target protein labelled with His-Tag Labeling Kit RED-tris-NTA 2nd generation, serial dilutions of unlabelled ligand; PBS with 0.05% Tween 20; 35% MST power, 60% LED power, 24°C
[2] = target: Osj10gBTF3 (recombinant, Expi293) (rice); assay: as above

| Kd [1] [µM] | Kd [2] [µM] | Substance |
| --- | --- | --- |
| 15.1 | 9.8 | OsCpn60 (recombinant, Expi293) (natural protein) |
|  | 24.3 | OsPPR676 (recombinant, Expi293) (natural protein) |

— article PMC8377413
